In patent US20220144956A1 (Xencor, published 2022):
Where a chain is given by its changes, count along the chain named. Names may count otherwise. Blank lines part the entries; values can stand above or below the binder they belong to.

What was measured:
[1] = biological target: T1, His-tagged human CD5 antigen (human, UniProt P06127 25-372, limits assumed); experiment: method not stated; the filing prints 'TGFßRII' but the sentence is about restoring the CD5 affinity of Cd5-B VH variants, so the target is taken as CD5
T1 construct: not shown: His tag
T1 sequence (looked up): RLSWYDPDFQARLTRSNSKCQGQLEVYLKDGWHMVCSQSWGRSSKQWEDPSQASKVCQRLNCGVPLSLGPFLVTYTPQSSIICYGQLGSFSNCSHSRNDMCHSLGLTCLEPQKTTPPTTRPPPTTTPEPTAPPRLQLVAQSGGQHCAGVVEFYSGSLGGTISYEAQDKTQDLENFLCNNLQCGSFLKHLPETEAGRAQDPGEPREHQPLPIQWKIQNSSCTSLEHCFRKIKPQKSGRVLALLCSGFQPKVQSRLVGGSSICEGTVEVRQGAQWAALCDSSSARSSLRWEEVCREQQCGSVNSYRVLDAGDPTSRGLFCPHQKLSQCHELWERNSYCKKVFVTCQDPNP

[2] = biological target: T2, His-tagged cynomolgus CD5 antigen (cynomolgus monkey); experiment: as above
T2 construct: also called cyno CD5

[3] = biological target: T3, human CD5 on human PBMCs / T cells (human, UniProt P06127 25-495); experiment: cell binding on unstimulated human PBMCs (FIG. 67)
T3 construct: whole, on cells
T3 sequence (looked up): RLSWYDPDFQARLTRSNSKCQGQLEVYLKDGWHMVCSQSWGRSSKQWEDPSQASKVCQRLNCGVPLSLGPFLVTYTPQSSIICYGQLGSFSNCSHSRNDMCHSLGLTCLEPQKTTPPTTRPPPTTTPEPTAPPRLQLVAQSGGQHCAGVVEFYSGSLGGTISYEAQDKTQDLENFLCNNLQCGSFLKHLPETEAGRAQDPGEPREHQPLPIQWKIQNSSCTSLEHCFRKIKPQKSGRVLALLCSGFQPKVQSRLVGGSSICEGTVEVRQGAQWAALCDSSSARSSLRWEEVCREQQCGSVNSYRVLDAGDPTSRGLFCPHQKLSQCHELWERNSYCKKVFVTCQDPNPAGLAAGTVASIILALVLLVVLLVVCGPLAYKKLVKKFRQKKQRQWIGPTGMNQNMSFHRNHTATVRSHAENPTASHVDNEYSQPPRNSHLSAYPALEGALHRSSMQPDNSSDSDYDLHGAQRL

[4] = biological target: T4, human TGFßRII on human PBMCs / T cells (human, UniProt P37173 23-567); experiment: flow cytometry, Alexa647-labeled mAb on anti-CD3 activated human PBMCs
T4 construct: whole, on cells; also called cell-surface TGFßRII; TGFßR2
T4 sequence (P37173 23-567): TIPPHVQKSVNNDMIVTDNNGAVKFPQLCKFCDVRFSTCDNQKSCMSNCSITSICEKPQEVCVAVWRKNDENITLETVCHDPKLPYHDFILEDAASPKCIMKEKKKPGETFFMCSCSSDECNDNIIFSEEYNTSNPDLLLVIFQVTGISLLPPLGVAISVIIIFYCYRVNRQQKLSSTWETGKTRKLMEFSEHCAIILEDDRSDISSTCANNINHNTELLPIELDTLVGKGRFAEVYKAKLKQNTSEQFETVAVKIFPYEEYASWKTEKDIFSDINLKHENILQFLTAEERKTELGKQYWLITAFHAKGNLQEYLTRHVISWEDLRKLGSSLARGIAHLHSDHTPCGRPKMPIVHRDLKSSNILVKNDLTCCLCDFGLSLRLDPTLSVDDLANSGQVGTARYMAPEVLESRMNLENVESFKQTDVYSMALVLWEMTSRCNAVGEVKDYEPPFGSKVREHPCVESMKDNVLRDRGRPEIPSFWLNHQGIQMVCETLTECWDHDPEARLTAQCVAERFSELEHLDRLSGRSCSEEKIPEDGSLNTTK

[5] = biological target: T3, human CD5 on human PBMCs / T cells; experiment: flow cytometry on unstimulated human PBMCs, anti-human Fc Alexa647 secondary
Procedure: Next, cell binding of the bispecific antibodies were investigated. Unstimulated PBMCs were incubated with the indicated dose of bispecific antibodies for 1 hour on ice and washed. Next, the PBMCs were stained with goat anti-human Fc secondary antibody conjugated to Alexa647 (to assess binding of the bispecific antibodies) and antibodies against cell surface antigens (to define T cell populations) for 40 minutes on ice. Finally, the cells were analyzed by flow cytometry.

[6] = biological target: T1, His-tagged human CD5 antigen; experiment: worded comparison of affinity (Octet KD values in FIG. 68)
Description: In particular, His-tagged human and cynomolgus CD5 antigen were captured using HIS1K sensors and dipped into multiple concentrations of the bispecific antibodies.

B1: Cd5-B H2L1 (further humanized variant of Cd5-B) (antibody, V domains shown)
VH: QVQLVQSGAEVKKPGASVKVSCKASGYSFTSYWMNWVRQAPGQGLEWMGMIHPSDSETRYNQKFQGRVTMTVDKSTSTAYMELSSLRSEDTAVYYCARWGDHDDAMDFWGQGTMVTVSS
VL: DIVLTQSPSSLSASVGDRVTITCRPSENIYGYFAWYQQKPGKSPKLLVYNAKTLAEGVPSRFSGSGSGTDFTLTISSLQPEDFATYYCQHHYGTPFTFGPGTKVEIK
Kd [1]: 2 nM
Kd [2]: 0.3 nM

B2: Cd5-B H1.23_L1 (further humanized variant of Cd5-B) (antibody, V domains shown)
VH: EVQLVQSGAEVKKPGESLKISCKASGYSFTSYWMNWVRQMPGKGLEWMGMIYPSDSETRYNQSFQGQVTISVDKSISTAYLQWSSLKASDTAMYYCARWGDHDDAMDFWGQGTMVTVSS
VL: B1 VL
Kd [1]: 4 nM
Kd [2]: 3 nM

B3: Cd5-B H1.36_L1 (further humanized variant of Cd5-B) (antibody, V domains shown)
VH: B2 VH with Y52H, S63K
VL: B1 VL
Kd [1]: 4 nM
Kd [2]: 2 nM

B4: XENP35401 (antibody, human IgG1, kappa, V domains shown)
VH: EVQLVESGGGVVQPGRSLRLSCTFSGFSLSTSGMGVGWIRQAPGKGLEWVAHIWWDDDVYYNPSLKSRLTITKDASTDTVYMELSSLRSEDTAVYYCVRRRATGTGFDYWGQGTLVTVSS
VL: NIVMTQSPSSLSASVGDRVTITCQASQDVGTAVAWYQQKPDQSPKLLIYWTSTRHTGVPDRFTGSGSGTDFTLTISSLQPEDIATYFCHQYNSYNTFGSGTKLEIKR
notes: IgG1 backbone with E233P/L234V/L235A/G236del/S267K ablation variant; also called bivalent anti-CD5 mAb based on clone 5D7; 5D7; copies: 2 + 2
binding result [3]: binds

Results, then the binder that gave them:

binding result [4]: binds
B5: XENP33038 (antibody, human IgG1, kappa, V domains shown)
VH: EVQLVESGGGLVKPGGSLRLSCAASGFTFSSFSMNWVRQAPGKGLEWVSSISSSSSYIYYTDSVKGRFTISRDNAKNSLYLQMNSLRAEDTAVYYCARGYWGFDYWGQGTLVTVSS
VL: DIQMTQSPSSLSASVGDRVTITCRASQGIRNDLGWYQQKPGKAPKRLIYAASSLQSGVPSRFSGSASGTEFTLTISSLQPEDFATYYCLQHNSNPLTFGGGTKVEIKR
modifications: Antibody labeled with Alexa647 in the assay; attachment sites not stated.
notes: labeled with Alexa647; also called illustrative anti-TGFßRII mAb XENP33038; copies: 2 + 2

binding result [4]: binds
B6: XENP28297 (antibody, human IgG1, kappa, V domains shown)
VH: QLQVQESGPGLVKPSETLSLTCTVSGGSISNSYFSWGWIRQPPGKGLEWIGSFYYGEKTYYNPSLKSRATISIDTSKSQFSLKLSSVTAADTAVYYCPRGPTVIRGVIDSWGQGTLVTVSS
VL: EIVLTQSPATLSLSPGERATLSCRASQSVRSYLAWYQQKPGQAPRLLIYDASNRATGIPARFSGSGSGTDFTLTISSLEPEDFAVYYCQQRSNWPPTFGQGTKVEIKR
modifications: The antibody was labeled with Alexa647 in the cell-binding assay. The dye position is not stated.
notes: also called bivalent anti-TGFßRII mAb based on TBRII-A; copies: 2 + 2

binding result [5]: binds
B7: XENP35399 (bispecific antibody, human IgG1, kappa)
heavy: EVQLVESGGGVVQPGRSLRLSCTFSGFSLSTSGMGVGWIRQAPGKGLEWVAHIWWDDDVYYNPSLKSRLTITKDASTDTVYMELSSLRSEDTAVYYCVRRRATGTGFDYWGQGTLVTVSSASTKGPSVFPLAPSSKSTSGGTAALGCLVKDYFPEPVTVSWNSGALTSGVHTFPAVLQSSGLYSLSSVVTVPSSSLGTQTYICNVNHKPSDTKVDKKVEPKSCDKTHTCPPCPAPPVAGPSVFLFPPKPKDTLMISRTPEVTCVVVDVKHEDPEVKFNWYVDGVEVHNAKTKPREEEYNSTYRVVSVLTVLHQDWLNGKEYKCKVSNKALPAPIEKTISKAKGQPREPQVYTLPPSREEMTKNQVSLTCDVSGFYPSDIAVEWESDGQPENNYKTTPPVLDSDGSFFLYSKLTVDKSRWEQGDVFSCSVMHEALHNHYTQKSLSLSPGK
scFv-Fc: QLQVQESGPGLVKPSETLSLTCTVSGGSISNSYFSWGWIRQPPGKGLEWIGSFYYGEKTYYNPSLKSRATISIDTSKSQFSLKLSSVTAADTAVYYCPRGPTVIRGVIDSWGQGTLVTVSSGKPGSGKPGSGKPGSGKPGSEIVLTQSPATLSLSPGERATLSCRASQSVRSYLAWYQQKPGQAPRLLIYDASNRATGIPARFSGSGSGTDFTLTISSLEPEDFAVYYCQQRSNWPPTFGQGTKVEIKEPKSSDKTHTCPPCPAPPVAGPSVFLFPPKPKDTLMISRTPEVTCVVVDVKHEDPEVKFNWYVDGVEVHNAKTKPREEQYNSTYRVVSVLTVLHQDWLNGKEYKCKVSNKALPAPIEKTISKAKGQPREPQVYTLPPSREQMTKNQVKLTCLVKGFYPSDIAVEWESNGQPENNYKTTPPVLDSDGSFFLYSKLTVDKSRWQQGNVFSCSVMHEALHNHYTQKSLSLSPGK
light: NIVMTQSPSSLSASVGDRVTITCQASQDVGTAVAWYQQKPDQSPKLLIYWTSTRHTGVPDRFTGSGSGTDFTLTISSLQPEDIATYFCHQYNSYNTFGSGTKLEIKRTVAAPSVFIFPPSDEQLKSGTASVVCLLNNFYPREAKVQWKVDNALQSGNSQESVTEQDSKDSTYSLSSTLTLSKADYEKHKVYACEVTHQGLSSPVTKSFNRGEC
notes: also called prototype anti-TGFßRII×anti-CD5 bsAb having CD5-targeting arm based on clone 5D7; αTGFßRII×αCD5

binding result [6]: binds
B8: XENP37385 (bispecific antibody, human IgG1, kappa)
heavy: EVQLKESGAELVRPGGSVKISCKGSGYTFTNFAIHWVKQSHIKTLEWIGLISTSSGDVSYNQKFKDKATMTVDKSSSTAYMELARLTSEDSAIYYCARHYGANNYFDYWGQGTLVTVSSASTKGPSVFPLAPSSKSTSGGTAALGCLVKDYFPEPVTVSWNSGALTSGVHTFPAVLQSSGLYSLSSVVTVPSSSLGTQTYICNVNHKPSDTKVDKKVEPKSCDKTHTCPPCPAPPVAGPSVFLFPPKPKDTLMISRTPEVTCVVVDVKHEDPEVKFNWYVDGVEVHNAKTKPREEEYNSTYRVVSVLTVLHQDWLNGKEYKCKVSNKALPAPIEKTISKAKGQPREPQVYTLPPSREEMTKNQVSLTCDVSGFYPSDIAVEWESDGQPENNYKTTPPVLDSDGSFFLYSKLTVDKSRWEQGDVFSCSVMHEALHNHYTQKSLSLSPGK
scFv-Fc: B7 scFv-Fc
light: EIVLTQSPTIMSASPGEQVTMTCRTNSSVSSSYLHWYQQKSGASPKLWIYGTSNLASGVPTRFSGSGSGTSYSLTISSVEAGDAATYFCQQYSGYPLTFGGGTKVEIKRTVAAPSVFIFPPSDEQLKSGTASVVCLLNNFYPREAKVQWKVDNALQSGNSQESVTEQDSKDSTYSLSSTLTLSKADYEKHKVYACEVTHQGLSSPVTKSFNRGEC

binding result [5]: binds
B9: XENP37388 (bispecific antibody, human IgG1, kappa)
heavy: QVTLKESGAELVRPGASVKLSCKASGYSFTSYWMNWVKQRPGQGLEWIGMIHPSDSETRLNQKFKDKATLTVDKSSSTAYMQLSSPTSEDSAVYYCARWGDHDDAMDFWGQGTMVTVSSASTKGPSVFPLAPSSKSTSGGTAALGCLVKDYFPEPVTVSWNSGALTSGVHTFPAVLQSSGLYSLSSVVTVPSSSLGTQTYICNVNHKPSDTKVDKKVEPKSCDKTHTCPPCPAPPVAGPSVFLFPPKPKDTLMISRTPEVTCVVVDVKHEDPEVKFNWYVDGVEVHNAKTKPREEEYNSTYRVVSVLTVLHQDWLNGKEYKCKVSNKALPAPIEKTISKAKGQPREPQVYTLPPSREEMTKNQVSLTCDVSGFYPSDIAVEWESDGQPENNYKTTPPVLDSDGSFFLYSKLTVDKSRWEQGDVFSCSVMHEALHNHYTQKSLSLSPGK
scFv-Fc: B7 scFv-Fc
light: DIVLTQSPASLSASVGESVTITCRPSENIYGYFAWYQQRQGKSPQLLVYNAKTLAEGVPSRFSGSGSGTHFSLKINSLQPEDFGTYYCQHHYGTPFTFGPGTKVDIKRTVAAPSVFIFPPSDEQLKSGTASVVCLLNNFYPREAKVQWKVDNALQSGNSQESVTEQDSKDSTYSLSSTLTLSKADYEKHKVYACEVTHQGLSSPVTKSFNRGEC
notes: also called anti-TGFßRII×anti-CD5 bsAb based on Cd5-B (by the order of the sentence)
